The RNAGym collection of RNA variant scans (doi:10.1073/pnas.2313332121)

B1: TPR t1 (parent)
chain: GACCAAUCUGCCCUCAGAGCUCGAGAACAUCUUCGGAUGCAGAGGAGGCAGGCUUCGGUGGCGCGAUAGCGCCAACGUCCUCAACCUCCAAUGCAUCCCACCACAUGAUGAUGCCUGAAGAGCCUUGGUUUUUUG

Variants of: B1
Experiment: polymerase ribozyme fitness, log enrichment relative to wild type (log ratio); higher = more active; in vitro selection for triplet polymerase activity
In short: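 PCR was used to build mutant libraries for each subunit of a heterodimeric triplet polymerase ribozyme, which were then transcribed. A single in vitro selection round, in triplicate, used a frozen incubation at −7 °C and recovered extended constructs by gel excision, streptavidin beads and RT-PCR. Fitness is the logarithm of genotype enrichment relative to wild-type enrichment, averaged over replicates with inverse-variance weights. The logarithm is base 2, and after Illumina sequencing only genotypes with ≥10 input reads and ≥1 read per output were kept.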

In order of falling “polymerase ribozyme fitness (log ratio)” value:
1. C3A C124G  1.55
2. C3G G120A C124G G128C  0.839
3. C3U C11A C15A A121U  0.659
4. C3U C12A A75U U87C C124U  0.0602
5. C3G U112A  -0.0942
6. A2C G69C A121U  -0.282
7. A2U C8U G45A C73U A95G G120A  -0.341
8. C3U C49A G120A  -0.42
9. C3U C53G  -0.501
10. C3U C12G C72U  -0.647
11. C3A G52U C123A  -0.759
12. A2G C12U C89G  -0.965
13. A2G C40U U55C  -1
14. C3G A5U C11U C73U C89G C123U  -1.08
15. C3U C20G G113A  -1.16
16. A2G C40A G58A  -1.21
17. A2U G120U  -1.32
18. A2G G110A  -1.38
19. A2G C8G G57U C85A  -1.4
20. C3U C8G A29G  -1.43
21. C3G C62U  -1.58
22. A2C A37U U78G G120U  -1.6
23. A2U G120C  -1.67
24. A2C G10U A37C C64U U112C  -1.73
25. C3A G52U  -1.75
26. A2C C49A  -1.83
27. A2C A6G C8A G61A C101G U131C  -1.87
28. A2U C12A A43U G120A  -1.89
29. A2C C53A  -1.9
30. A2U U14A G69U C82U A119C G120U  -2.15
31. A2U A5G C12U G61A U112G  -2.18
32. C3A A84G  -2.2
33. A2C C79A U129C  -2.39
34. C3G C64U G69A  -2.41
35. C3A U130A  -2.53
36. A2C C115U  -2.66
37. A2U C8G C101G  -2.67
38. A2G G19A  -2.68
39. A2C G36A A50U G77A C123U  -2.76
40. A2C G71A C82A  -2.88
41. C3A G47A C72A A100C  -2.89
42. A2U C15A A16C G17A C72A C85G A118U C124G  -2.91
43. A2G G77U C86G G135U  -2.95
44. A2C G57C C72A C101A G135U  -3.06
45. A2C C4A A108G  -3.25
46. A2U A5C G63C  -3.31
47. C3U A27G G42U C72U C82U C104U  -3.31
48. A2C C85U  -3.37
49. C3G U96A  -3.4
50. A2U A43U  -3.48
51. C3U C13G G48U A50U U92C G120A U131A  -3.5
52. A2C A16U C72A U125A  -3.54
53. A2U C3G G63A  -3.64
54. A2G U14A C62A  -3.69
55. A2G U38G G42U G61U C73U C115U  -3.74
56. C3A C99U  -3.8
57. C3A G117C  -3.87
58. A2U G61C  -3.94
59. A2U C13U C85G U131G  -3.98
60. C3A G39U C114A U125G  -3.98
61. A2C U7A C49U U96A C101A U125G  -3.99
62. A2C C62U A75U G110A  -4.14
63. A2U U38A G63A C88U  -4.16
64. A2C A5G U7C C13A G48U A50U U92C C97U C123U  -4.24
65. C3U C56G G58U G113U  -4.35
66. A2C G44A G113A  -4.5
67. A2U C28U C49A C101G U106A  -4.56
68. A2C G117U U129A  -4.64
69. C3U C22G C56U G117C  -4.66
70. A2C C12U G42U G71U A84U C94A U129A  -4.83
71. C3A G36A G44C C72A U130A  -4.85
72. C3A G52U C72A C89G C104A G113U A119U C123G  -5.02
73. C3U C11G G63C C86U U109G U131A  -5.05
74. C3U C22G G39U C49G C70U G110U  -5.2
75. A2G C4U C79A C115A  -5.2
76. C3U C12U C53G C56U U106A A111C C123G G127A  -5.21
77. A2G C88G G113C G128A U129G  -5.6
78. A2U A41C C114U U133G  -5.64
79. C3A C40A A91C G117C A119U  -5.83
80. A2C G45A G57A C114U C124U G127C  -5.9
81. C3G G39C C53G G113U  -5.93
82. C3A U81G C115U  -6.22
83. A2U G10U A18G U33G G60A C124A  -6.77
84. A2G A27U C73G C79G C104U  -6.8
